Data as given in patent publication US20220112262A1 (CASE WESTERN RESERVE UNIVERSITY, published 2022).

Molecular target: T1, FLAG epitope-tagged holoreceptor of human type 1 insulin-like growth factor receptor (hIGFR) (human, UniProt P08069 31-1367)
T1 construct: The holoreceptor was captured on 96 well plates coated with anti-FLAG monoclonal antibody; also called IGF-R1; IGF-1R
Test: competitive displacement of 125I-labeled human insulin from plate-captured FLAG-tagged hIGFR

T1 sequence (P08069 31-1367 limits assumed): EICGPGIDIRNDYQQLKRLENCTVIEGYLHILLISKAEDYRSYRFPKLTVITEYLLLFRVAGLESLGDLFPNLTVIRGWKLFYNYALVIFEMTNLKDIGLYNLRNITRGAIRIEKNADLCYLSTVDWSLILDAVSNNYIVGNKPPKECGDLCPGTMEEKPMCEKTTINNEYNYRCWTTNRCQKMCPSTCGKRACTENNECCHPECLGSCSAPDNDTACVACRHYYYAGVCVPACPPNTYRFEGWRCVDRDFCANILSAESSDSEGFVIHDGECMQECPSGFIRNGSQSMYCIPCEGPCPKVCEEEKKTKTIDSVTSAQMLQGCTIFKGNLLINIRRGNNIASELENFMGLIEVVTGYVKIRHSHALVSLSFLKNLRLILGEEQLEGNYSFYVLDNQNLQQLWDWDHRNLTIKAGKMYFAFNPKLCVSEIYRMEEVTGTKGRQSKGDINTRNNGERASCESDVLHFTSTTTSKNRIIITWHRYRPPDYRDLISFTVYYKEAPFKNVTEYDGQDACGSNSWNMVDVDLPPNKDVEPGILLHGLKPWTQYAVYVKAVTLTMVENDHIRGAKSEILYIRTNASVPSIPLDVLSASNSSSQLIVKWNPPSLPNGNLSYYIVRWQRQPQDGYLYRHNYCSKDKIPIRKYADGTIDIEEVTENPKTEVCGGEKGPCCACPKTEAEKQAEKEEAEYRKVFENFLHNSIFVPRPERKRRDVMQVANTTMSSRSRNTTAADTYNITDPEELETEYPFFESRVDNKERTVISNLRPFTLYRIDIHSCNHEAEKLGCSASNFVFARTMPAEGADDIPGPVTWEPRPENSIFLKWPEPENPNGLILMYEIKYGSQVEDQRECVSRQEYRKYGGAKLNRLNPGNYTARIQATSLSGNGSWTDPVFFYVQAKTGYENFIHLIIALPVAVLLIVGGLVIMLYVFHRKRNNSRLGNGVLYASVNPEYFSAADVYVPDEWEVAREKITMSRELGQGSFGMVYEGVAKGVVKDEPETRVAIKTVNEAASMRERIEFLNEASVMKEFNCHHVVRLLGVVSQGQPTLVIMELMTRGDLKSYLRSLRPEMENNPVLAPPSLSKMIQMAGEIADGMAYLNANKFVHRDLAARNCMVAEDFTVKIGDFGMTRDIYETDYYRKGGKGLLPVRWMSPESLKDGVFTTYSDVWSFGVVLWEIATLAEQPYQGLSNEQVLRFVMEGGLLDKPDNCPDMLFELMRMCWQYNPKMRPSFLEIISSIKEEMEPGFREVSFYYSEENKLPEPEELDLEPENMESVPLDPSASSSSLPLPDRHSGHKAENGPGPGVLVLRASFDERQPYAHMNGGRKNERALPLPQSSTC

Binding Affinity: 0.16
IGF1-R (Rel. Aff.), relative to insulin lispro: 18%
B1: des-[B1, B2], Glu^B3, His^A8, Glu^A14, Gln^A17, des-B30-insulin (T-0706) (ligand)
chain 1: GIVEQCCHSICSLEQLQNYCN
chain 2: EQHLCGSHLVEALYLVCGERGFFYTPK
modifications: not fully specified
notes: Formulated without zinc; also called HA8 EA14 QA17 des[B1-B2]; EB3 desB30
